From PMC3112360

How the values were obtained:
[1] = target: homocysteinylated FN40K fragment (human) (UniProt P02751); assay: ELISA
[2] = target: homocysteinylated fibronectin (human (endogenous in primary human dermal fibroblasts)) (UniProt P02751); assay: ELISA
Chain of homocysteinylated fibronectin (human (endogenous in primary human dermal fibroblasts)) (P02751 32-2477): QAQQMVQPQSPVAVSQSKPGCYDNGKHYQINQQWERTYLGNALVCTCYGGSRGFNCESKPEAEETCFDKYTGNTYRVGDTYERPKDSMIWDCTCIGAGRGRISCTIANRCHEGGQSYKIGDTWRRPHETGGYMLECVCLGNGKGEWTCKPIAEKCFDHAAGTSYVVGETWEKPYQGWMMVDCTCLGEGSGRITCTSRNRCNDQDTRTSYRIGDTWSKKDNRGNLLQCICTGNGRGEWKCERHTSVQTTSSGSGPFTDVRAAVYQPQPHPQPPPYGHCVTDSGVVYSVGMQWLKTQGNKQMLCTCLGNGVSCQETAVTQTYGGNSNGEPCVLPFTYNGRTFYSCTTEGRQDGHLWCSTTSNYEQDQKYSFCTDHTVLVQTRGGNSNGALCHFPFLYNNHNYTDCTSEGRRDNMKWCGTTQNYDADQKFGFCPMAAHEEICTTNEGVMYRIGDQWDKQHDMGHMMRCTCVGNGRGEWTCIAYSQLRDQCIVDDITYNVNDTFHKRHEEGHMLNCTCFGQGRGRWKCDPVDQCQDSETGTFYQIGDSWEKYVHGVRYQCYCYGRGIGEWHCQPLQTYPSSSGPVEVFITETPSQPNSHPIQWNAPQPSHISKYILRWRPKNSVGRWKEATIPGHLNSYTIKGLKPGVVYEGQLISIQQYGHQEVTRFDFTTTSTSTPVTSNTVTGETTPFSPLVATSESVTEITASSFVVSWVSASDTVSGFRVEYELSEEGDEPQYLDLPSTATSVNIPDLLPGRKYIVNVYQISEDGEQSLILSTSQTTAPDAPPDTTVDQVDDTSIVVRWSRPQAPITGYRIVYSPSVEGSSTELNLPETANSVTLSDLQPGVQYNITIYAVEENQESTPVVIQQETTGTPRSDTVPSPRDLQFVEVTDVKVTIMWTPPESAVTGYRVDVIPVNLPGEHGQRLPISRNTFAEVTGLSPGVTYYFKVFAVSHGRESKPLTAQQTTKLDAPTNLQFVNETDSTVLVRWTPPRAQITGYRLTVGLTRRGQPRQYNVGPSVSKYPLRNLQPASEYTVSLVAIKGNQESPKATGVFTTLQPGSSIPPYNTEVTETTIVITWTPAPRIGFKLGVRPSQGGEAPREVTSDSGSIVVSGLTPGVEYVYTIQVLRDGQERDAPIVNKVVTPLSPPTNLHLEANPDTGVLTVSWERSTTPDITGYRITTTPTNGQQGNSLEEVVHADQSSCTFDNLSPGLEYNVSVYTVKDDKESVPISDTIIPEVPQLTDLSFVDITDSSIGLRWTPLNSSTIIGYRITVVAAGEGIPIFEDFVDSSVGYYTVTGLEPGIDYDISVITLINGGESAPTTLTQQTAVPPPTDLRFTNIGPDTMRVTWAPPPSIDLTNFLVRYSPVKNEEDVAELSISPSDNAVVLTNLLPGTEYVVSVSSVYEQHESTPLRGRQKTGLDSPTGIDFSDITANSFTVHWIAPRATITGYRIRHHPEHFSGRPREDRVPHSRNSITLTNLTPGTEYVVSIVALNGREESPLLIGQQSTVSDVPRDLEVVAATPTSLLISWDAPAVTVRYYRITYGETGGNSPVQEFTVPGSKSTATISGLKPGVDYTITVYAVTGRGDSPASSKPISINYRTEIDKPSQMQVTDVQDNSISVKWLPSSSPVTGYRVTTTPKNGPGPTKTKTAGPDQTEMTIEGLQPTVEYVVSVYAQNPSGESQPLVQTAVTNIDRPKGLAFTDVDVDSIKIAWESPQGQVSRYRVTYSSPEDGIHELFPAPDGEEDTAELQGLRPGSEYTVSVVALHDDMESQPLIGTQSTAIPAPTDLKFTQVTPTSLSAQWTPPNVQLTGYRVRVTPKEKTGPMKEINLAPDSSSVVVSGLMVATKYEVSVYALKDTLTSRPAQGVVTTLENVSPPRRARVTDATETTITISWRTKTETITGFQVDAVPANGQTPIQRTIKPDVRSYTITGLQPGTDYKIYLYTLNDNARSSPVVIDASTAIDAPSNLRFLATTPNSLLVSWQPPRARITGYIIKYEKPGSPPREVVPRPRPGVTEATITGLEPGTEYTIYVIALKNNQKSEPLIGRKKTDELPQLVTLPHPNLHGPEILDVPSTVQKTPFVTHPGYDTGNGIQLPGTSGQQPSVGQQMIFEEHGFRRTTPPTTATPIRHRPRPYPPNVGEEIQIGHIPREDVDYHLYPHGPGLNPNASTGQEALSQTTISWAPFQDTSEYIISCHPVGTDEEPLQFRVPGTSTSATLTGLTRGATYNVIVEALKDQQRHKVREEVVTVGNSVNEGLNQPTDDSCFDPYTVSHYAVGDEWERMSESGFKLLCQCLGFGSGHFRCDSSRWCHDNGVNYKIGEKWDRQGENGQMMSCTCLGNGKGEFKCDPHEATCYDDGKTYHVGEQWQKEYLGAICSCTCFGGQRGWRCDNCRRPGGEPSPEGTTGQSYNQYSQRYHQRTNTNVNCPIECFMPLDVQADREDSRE

Chain of homocysteinylated FN40K fragment (human) (P02751 32-2477): as above

relative reduction in binding against the non-modified control [1]: 34.1% | relative reduction in binding against the non-modified control [2]: 65%
Substance: recombinant C-terminal half of fibrillin-1 (rFBN1-C) (from UniProt P35555 45-2731) (domain or fragment)
